In patent US20220332804A1 (CSL INNOVATION, published 2022):

Assays:
Assay in all cases: SPR, antibody captured, C2 as analyte;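 note: biacore at 37 °C, anti-C2 mAbs held by immobilised goat anti-human IgG, C2 alanine or serine mutants injected, double-referenced sensorgrams fitted to a 1:1 kinetic or steady-state model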
human C2 V418A = target: T1, human C2 V418A (human, UniProt P06681 21-752)
T1 sequence: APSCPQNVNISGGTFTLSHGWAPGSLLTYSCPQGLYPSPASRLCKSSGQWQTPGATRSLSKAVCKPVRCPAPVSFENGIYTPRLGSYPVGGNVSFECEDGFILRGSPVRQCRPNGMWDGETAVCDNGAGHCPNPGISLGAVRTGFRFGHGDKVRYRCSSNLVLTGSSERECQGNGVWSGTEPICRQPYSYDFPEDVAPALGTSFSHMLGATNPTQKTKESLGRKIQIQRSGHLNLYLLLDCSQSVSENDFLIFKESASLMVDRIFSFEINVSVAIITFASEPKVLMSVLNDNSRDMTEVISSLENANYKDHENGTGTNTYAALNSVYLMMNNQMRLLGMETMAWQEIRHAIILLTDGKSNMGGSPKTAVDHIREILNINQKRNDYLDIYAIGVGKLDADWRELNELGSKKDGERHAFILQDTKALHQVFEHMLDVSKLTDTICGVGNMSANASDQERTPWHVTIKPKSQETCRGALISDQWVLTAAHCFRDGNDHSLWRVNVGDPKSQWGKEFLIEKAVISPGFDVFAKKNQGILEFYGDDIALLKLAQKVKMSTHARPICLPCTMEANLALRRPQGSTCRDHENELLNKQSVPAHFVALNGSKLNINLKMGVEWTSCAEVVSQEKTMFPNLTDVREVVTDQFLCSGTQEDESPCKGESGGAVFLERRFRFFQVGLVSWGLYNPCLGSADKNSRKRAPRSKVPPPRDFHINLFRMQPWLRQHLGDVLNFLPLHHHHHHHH

human C2 G427A = target: T2, human C2 G427A (human, UniProt P06681 21-752)
T2 sequence: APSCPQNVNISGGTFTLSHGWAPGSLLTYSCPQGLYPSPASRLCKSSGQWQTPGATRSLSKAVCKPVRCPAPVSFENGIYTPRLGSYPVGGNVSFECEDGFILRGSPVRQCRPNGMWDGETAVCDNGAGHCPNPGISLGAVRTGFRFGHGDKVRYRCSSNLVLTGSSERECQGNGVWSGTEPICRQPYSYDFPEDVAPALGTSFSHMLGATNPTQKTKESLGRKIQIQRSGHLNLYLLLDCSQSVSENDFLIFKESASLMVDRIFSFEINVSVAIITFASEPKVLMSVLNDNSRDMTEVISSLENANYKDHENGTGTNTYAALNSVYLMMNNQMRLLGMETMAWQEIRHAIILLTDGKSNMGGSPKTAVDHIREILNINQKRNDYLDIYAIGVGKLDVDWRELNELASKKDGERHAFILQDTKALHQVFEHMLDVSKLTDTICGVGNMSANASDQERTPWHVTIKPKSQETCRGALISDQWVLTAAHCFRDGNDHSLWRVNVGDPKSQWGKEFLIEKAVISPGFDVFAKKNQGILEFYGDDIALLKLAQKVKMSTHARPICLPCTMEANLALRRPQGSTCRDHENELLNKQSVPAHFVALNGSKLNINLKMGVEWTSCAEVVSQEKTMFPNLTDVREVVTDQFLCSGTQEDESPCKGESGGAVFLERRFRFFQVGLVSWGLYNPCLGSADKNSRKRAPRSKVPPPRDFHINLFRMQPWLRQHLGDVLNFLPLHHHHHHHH

human C2 L453A = target: T3, human C2 L453A (human, UniProt P06681 21-752)
T3 sequence: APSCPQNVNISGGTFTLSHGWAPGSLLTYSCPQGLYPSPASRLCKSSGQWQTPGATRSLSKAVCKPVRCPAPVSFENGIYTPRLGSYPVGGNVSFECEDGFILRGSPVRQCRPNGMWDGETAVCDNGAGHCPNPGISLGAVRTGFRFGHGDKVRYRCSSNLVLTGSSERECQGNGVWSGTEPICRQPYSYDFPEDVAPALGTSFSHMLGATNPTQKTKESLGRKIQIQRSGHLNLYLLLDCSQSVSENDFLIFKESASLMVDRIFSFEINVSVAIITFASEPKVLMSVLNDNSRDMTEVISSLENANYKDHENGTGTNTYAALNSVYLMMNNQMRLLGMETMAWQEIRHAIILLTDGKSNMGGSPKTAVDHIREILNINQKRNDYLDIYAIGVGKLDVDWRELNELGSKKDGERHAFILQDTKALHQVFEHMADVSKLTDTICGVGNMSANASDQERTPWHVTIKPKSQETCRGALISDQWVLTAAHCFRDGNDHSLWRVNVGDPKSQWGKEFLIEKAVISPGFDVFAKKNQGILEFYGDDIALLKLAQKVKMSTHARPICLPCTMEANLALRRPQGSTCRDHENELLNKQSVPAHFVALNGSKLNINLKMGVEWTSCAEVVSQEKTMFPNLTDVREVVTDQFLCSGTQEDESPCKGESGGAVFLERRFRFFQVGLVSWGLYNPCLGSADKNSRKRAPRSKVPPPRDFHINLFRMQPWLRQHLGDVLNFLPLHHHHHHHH

human C2 V448A = target: T4, human C2 V448A (human, UniProt P06681 21-752)
T4 sequence: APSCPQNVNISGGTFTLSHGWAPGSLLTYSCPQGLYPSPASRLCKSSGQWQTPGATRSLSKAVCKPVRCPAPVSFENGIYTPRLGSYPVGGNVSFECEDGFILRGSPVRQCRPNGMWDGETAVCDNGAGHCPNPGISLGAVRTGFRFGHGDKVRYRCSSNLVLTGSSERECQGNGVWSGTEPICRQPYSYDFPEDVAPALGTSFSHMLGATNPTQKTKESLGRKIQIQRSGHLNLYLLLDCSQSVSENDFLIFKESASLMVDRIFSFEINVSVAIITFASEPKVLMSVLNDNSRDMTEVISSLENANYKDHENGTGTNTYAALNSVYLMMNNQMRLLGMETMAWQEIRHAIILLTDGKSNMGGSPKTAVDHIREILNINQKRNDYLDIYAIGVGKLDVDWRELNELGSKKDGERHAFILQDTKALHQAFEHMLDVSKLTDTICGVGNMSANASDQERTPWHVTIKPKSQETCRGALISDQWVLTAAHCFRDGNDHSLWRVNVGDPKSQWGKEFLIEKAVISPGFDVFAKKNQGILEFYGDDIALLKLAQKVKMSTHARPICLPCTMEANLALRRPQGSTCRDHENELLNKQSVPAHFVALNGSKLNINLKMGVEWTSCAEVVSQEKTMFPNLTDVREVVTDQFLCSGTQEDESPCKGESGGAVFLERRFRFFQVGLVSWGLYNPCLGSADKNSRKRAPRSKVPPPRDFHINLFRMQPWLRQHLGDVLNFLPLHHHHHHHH

B1: RF16-242 (antibody, human IgG4 S228P, lambda, V domains shown)
VH: EVQLLQSGAEVKKPGESLKISCKGSGYSFTSYWIGWVRQMPGKGLEWMGIIYPGDSDTRYSPSFQGQVTISADKSISTAYLQWSSLKASDTAMYYCARRGHYGDYFDYWGQGTLVTVSS
VL: SYELTQPPSVSVSPGQTARITCSGDALPKKYAYWYHQKSGQAPVLVIYEDRRRPSEIPERFSGSSSGTMATLTITGAQVEDEGVYFCYSRDRAGNQRVFGGGTQLTVLG
notes: pH-dependent anti-C2 antibody from a phage display library
Human C2 V418A
  Kd: 6.8 nM
Human C2 G427A
  Kd: 4 nM
Human C2 L453A
  Kd: 6.8 nM
Human C2 V448A
  Kd: 5 nM
